In patent US20240084031A1 (Seagen, published 2024):

T1: human CD70 on CD70 positive cell lines (human, UniProt P32970 1-193)
T1 sequence (looked up): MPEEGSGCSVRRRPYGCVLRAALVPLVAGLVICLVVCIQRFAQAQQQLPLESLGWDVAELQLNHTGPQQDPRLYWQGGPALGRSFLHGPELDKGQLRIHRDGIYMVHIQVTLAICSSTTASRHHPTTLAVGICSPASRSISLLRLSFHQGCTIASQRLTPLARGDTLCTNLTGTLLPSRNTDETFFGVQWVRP


Key:
[1] = molecular target: T1, human CD70 on CD70 positive cell lines; experiment: cell-based or functional assay
[2] = molecular target: T1, human CD70 on CD70 positive cell lines; experiment: 786-O cell binding; IC50 of the vcF2 conjugate over IC50 of the unconjugated IgG
[3] = molecular target: T2, human FcγRI, full length on stably transfected CHO cells (human, UniProt P12314 16-374); experiment: cell-based competition binding, flow cytometry (LSRII): serial dilutions of unlabelled competitor against 50 nM Alexa Fluor 488-labelled h1F6 IgG1 on CHO cells expressing human FcγRI
T2 construct: whole, on cells; also called CD64; Fcγ receptor I
T2 sequence (P12314 16-374): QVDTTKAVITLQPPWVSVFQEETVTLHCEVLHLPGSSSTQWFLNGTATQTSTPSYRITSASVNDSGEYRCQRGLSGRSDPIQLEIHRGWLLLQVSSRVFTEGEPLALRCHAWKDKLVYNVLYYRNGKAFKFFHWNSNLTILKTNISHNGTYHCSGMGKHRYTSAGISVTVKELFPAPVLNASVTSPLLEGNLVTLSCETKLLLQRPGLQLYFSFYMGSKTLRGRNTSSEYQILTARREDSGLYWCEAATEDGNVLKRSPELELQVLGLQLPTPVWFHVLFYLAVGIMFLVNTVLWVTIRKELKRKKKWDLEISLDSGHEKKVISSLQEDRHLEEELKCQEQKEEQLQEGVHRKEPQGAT
Method: Labeled cells were detected using an LSRII FACS analyzer.
Binding of humanized anti-CD70 (h1F6) antibody to CHO cells expressing full-length FcγRI was determined by competition binding. […] Labeled cells were detected using an LSRII FACS analyzer.

[4] = molecular target: T1, human CD70 on CD70 positive cell lines; experiment: 786-O cell binding, apparent KD of the IgG
[5] = molecular target: T1, human CD70 on CD70 positive cell lines; experiment: saturation binding of europium-labelled antibody to CD70+ ACHN cells (apparent KD)
Description: (§1) Humanized 1F6 antibody derivatives HDLA (hVHD and hVLA), HHLA (hVHH and hVLA), and HJLA (hVHJ and hVLA), and c1F6 were transiently expressed in 293 cells, labeled with europium using the Eu-N1 iodoacetamido chelate (Perkin Elmer), and analyzed for saturation binding to a panel of CD70 positive cell lines as described in detail in U.S. Patent Application No. 60/673,070, filed Apr. 19, 2005; and PCT International Publication No. WO 2006/113909.

[6] = molecular target: T1, human CD70 on CD70 positive cell lines; experiment: saturation binding of europium-labelled antibody to CD70+ 786-O cells (apparent KD)
Description: as §1

[7] = molecular target: T1, human CD70 on CD70 positive cell lines; experiment: saturation binding of europium-labelled antibody to CD70+ Caki-1 cells (apparent KD)
Description: as §1

[8] = molecular target: T1, human CD70 on CD70 positive cell lines; experiment: saturation binding of europium-labelled antibody to CD70+ Caki-2 cells (apparent KD)
Description: as §1

Binder	cytotoxicity IC50 (mean, n = 3), 786-O cells [1]	cytotoxicity IC50 (mean, n = 3), Caki-1 cells [1]	cytotoxicity IC50, 786-O cells [1]	cytotoxicity IC50, Caki-1 cells [1]	further results
h1F6 HJLA-F8 (HJLA conjugated to vcMMAF, eight drug units per antibody) (antibody, human IgG1, kappa, vcMMAF conjugated, loading level of eight drug units per antibody; attachment residues not stated) heavy: not shown light: DIVMTQSPDSLAVSLGERATINCRASKSVSTSGYSFMHWYQQKPGQPPKLLIYLASNLESGVPDRFSGSGSGTDFTLTISSLQAEDVAVYYCQHSREVPWTFGQGTKVEIKRTVAAPSVFIFPPSDEQLKSGTASVVCLLNNFYPREAKVQWKVDNALQSGNSQESVTEQDSKDSTYSLSSTLTLSKADYEKHKVYACEVTHQGLSSPVTKSFNRGEC	3.03 ng/mL	2.3 ng/mL	3.4 ng/mL	2.2 ng/mL	
h1F6 IgG1-vcF2 (conjugate of h1F6 IgG1 in Table 8) (antibody, vcF2 as printed (taken as vcMMAF, 2 drugs/antibody); attachment residues not stated, Its preparation is not described; also called IgG1 IgG-vcF2) heavy: not shown light: DIVMTQSPDSLAVSLGERATINCRASKSVSTSGYSFMHWYQQKPGQPPKLLIYLASNLESGVPDRFSGSGSGTDFTLTISSLQAEDVAVYYCQHSREVPWTFGQGTKVEIKRTVAAPSVFIFPPSDEQLKSGTASVVCLLNNFYPREAKVQWKVDNALQSGNSQESVTEQDSKDSTYSLSSTLTLSKADYEKHKVYACEVTHQGLSSPVTKSFNRGEC					IC50 IgG-vcF2 / IC50 IgG [2]: 1.3 ratio
h1F6 IgG4 (IgG4 isotype variant of h1F6 HJLA) (antibody, also called h1F6 G4) heavy: not shown light: DIVMTQSPDSLAVSLGERATINCRASKSVSTSGYSFMHWYQQKPGQPPKLLIYLASNLESGVPDRFSGSGSGTDFTLTISSLQAEDVAVYYCQHSREVPWTFGQGTKVEIKRTVAAPSVFIFPPSDEQLKSGTASVVCLLNNFYPREAKVQWKVDNALQSGNSQESVTEQDSKDSTYSLSSTLTLSKADYEKHKVYACEVTHQGLSSPVTKSFNRGEC					IC50 (read off the curve) [3]: ~30 nM
h1F6 IgG1 A327C-vcF2 (conjugate in Table 8) (antibody, vcF2 as printed (taken as vcMMAF, 2 drugs/antibody); attachment residues not stated, Position 327 is Fc (EU) numbering; also called IgG1 A327C IgG-vcF2) heavy: not shown light: DIVMTQSPDSLAVSLGERATINCRASKSVSTSGYSFMHWYQQKPGQPPKLLIYLASNLESGVPDRFSGSGSGTDFTLTISSLQAEDVAVYYCQHSREVPWTFGQGTKVEIKRTVAAPSVFIFPPSDEQLKSGTASVVCLLNNFYPREAKVQWKVDNALQSGNSQESVTEQDSKDSTYSLSSTLTLSKADYEKHKVYACEVTHQGLSSPVTKSFNRGEC					IC50 IgG-vcF2 / IC50 IgG [2]: 1.1 ratio
h1F6 IgG1 A327C (antibody) heavy: not shown light: DIVMTQSPDSLAVSLGERATINCRASKSVSTSGYSFMHWYQQKPGQPPKLLIYLASNLESGVPDRFSGSGSGTDFTLTISSLQAEDVAVYYCQHSREVPWTFGQGTKVEIKRTVAAPSVFIFPPSDEQLKSGTASVVCLLNNFYPREAKVQWKVDNALQSGNSQESVTEQDSKDSTYSLSSTLTLSKADYEKHKVYACEVTHQGLSSPVTKSFNRGEC					Kd [4]: 0.5 nM
h1F6 IgG1 D265C (antibody) heavy: not shown light: DIVMTQSPDSLAVSLGERATINCRASKSVSTSGYSFMHWYQQKPGQPPKLLIYLASNLESGVPDRFSGSGSGTDFTLTISSLQAEDVAVYYCQHSREVPWTFGQGTKVEIKRTVAAPSVFIFPPSDEQLKSGTASVVCLLNNFYPREAKVQWKVDNALQSGNSQESVTEQDSKDSTYSLSSTLTLSKADYEKHKVYACEVTHQGLSSPVTKSFNRGEC					Kd [4]: 1.1 nM
h1F6 IgG1 E269C (antibody) heavy: not shown light: DIVMTQSPDSLAVSLGERATINCRASKSVSTSGYSFMHWYQQKPGQPPKLLIYLASNLESGVPDRFSGSGSGTDFTLTISSLQAEDVAVYYCQHSREVPWTFGQGTKVEIKRTVAAPSVFIFPPSDEQLKSGTASVVCLLNNFYPREAKVQWKVDNALQSGNSQESVTEQDSKDSTYSLSSTLTLSKADYEKHKVYACEVTHQGLSSPVTKSFNRGEC					Kd [4]: 0.8 nM
h1F6 IgG1 D265C-vcF2 (conjugate in Table 8) (antibody, vcF2 as printed (taken as vcMMAF, 2 drugs/antibody); attachment residues not stated, Position 265 is Fc (EU) numbering; also called IgG1 D265C IgG-vcF2) heavy: not shown light: DIVMTQSPDSLAVSLGERATINCRASKSVSTSGYSFMHWYQQKPGQPPKLLIYLASNLESGVPDRFSGSGSGTDFTLTISSLQAEDVAVYYCQHSREVPWTFGQGTKVEIKRTVAAPSVFIFPPSDEQLKSGTASVVCLLNNFYPREAKVQWKVDNALQSGNSQESVTEQDSKDSTYSLSSTLTLSKADYEKHKVYACEVTHQGLSSPVTKSFNRGEC					IC50 IgG-vcF2 / IC50 IgG [2]: 0.9 ratio
h1F6 IgG1 E269C-vcF2 (conjugate in Table 8) (antibody, vcF2 as printed (taken as vcMMAF, 2 drugs/antibody); attachment residues not stated, Position 269 is Fc (EU) numbering; also called IgG1 E269C IgG-vcF2) heavy: not shown light: DIVMTQSPDSLAVSLGERATINCRASKSVSTSGYSFMHWYQQKPGQPPKLLIYLASNLESGVPDRFSGSGSGTDFTLTISSLQAEDVAVYYCQHSREVPWTFGQGTKVEIKRTVAAPSVFIFPPSDEQLKSGTASVVCLLNNFYPREAKVQWKVDNALQSGNSQESVTEQDSKDSTYSLSSTLTLSKADYEKHKVYACEVTHQGLSSPVTKSFNRGEC					IC50 IgG-vcF2 / IC50 IgG [2]: 0.9 ratio
h1F6 HMLA-F8 (humanized 1F6 derivative HMLA, hVHM and hVLA, conjugated to vcMMAF, eight drug units per antibody) (antibody, human IgG1, kappa, V domains shown, vcMMAF conjugated, loading level of eight drug units per antibody; attachment residues not stated) VH: QVQLVQSGAEVKKPGASVKVSCKASGYTFTNYGMNWVRQAPGQGLKWMGWINTYTGEPTYADAFKGRFAFSLDTSTSTAYMELRSLRSDDTAVYYCARDYGDYGMDYWGQGTTVTVSS VL: DIVMTQSPDSLAVSLGERATINCRASKSVSTSGYSFMHWYQQKPGQPPKLLIYLASNLESGVPDRFSGSGSGTDFTLTISSLQAEDVAVYYCQHSREVPWTFGQGTKVEIKR	2.03 ng/mL	2.07 ng/mL	2.8 ng/mL	1.8 ng/mL	
h1F6 HELA-F8 (humanized 1F6 derivative HELA, hVHE and hVLA, conjugated to vcMMAF, eight drug units per antibody) (antibody, human IgG1, kappa, V domains shown, vcMMAF conjugated, loading level of eight drug units per antibody; attachment residues not stated) VH: QVQLVQSGAEVKKPGASVKVSCKASGYTFTNYGMNWVRQAPGQGLEWMGWINTYTGEPTYADAFKGRVTMTRDTSISTAYMELSRLRSDDTAVYYCARDYGDYGMDYWGQGTTVTVSS VL: DIVMTQSPDSLAVSLGERATINCRASKSVSTSGYSFMHWYQQKPGQPPKLLIYLASNLESGVPDRFSGSGSGTDFTLTISSLQAEDVAVYYCQHSREVPWTFGQGTKVEIKR	3.9 ng/mL	2.87 ng/mL	5.2 ng/mL	3.4 ng/mL	
humanized 1F6 antibody derivative HDLA (hVHD and hVLA) (antibody, human IgG1, kappa, V domains shown, Heavy chain is hVH-D + hIgG1 constant domain; also called h1F6 HDLA) VH: QVQLVQSGAEVKKPGASVKVSCKASGYTFTNYGMNWVRQAPGQGLEWMGWINTYTGEPTYADAFKGRVTMTTDTSTSTAYMELRSLRSDDTAVYYCARDYGDYGMDYWGQGTTVTVSS VL: DIVMTQSPDSLAVSLGERATINCRASKSVSTSGYSFMHWYQQKPGQPPKLLIYLASNLESGVPDRFSGSGSGTDFTLTISSLQAEDVAVYYCQHSREVPWTFGQGTKVEIKR					Kd [5]: 1.44 nM; Kd [6]: 0.55 nM; Kd [7]: 1.29 nM; Kd [8]: 0.86 nM
h1F6 HHLA-F8 (HHLA conjugated to vcMMAF, eight drug units per antibody) (antibody, human IgG1, kappa, V domains shown, vcMMAF conjugated, loading level of eight drug units per antibody; attachment residues not stated) VH: QVQLVQSGAEVKKPGASVKVSCKASGYTFTNYGMNWVRQAPGQGLEWMGWINTYTGEPTYADAFKGRFAFSLDTSTSTAYLQINSLRSDDTAVYYCARDYGDYGMDYWGQGTTVTVSS VL: DIVMTQSPDSLAVSLGERATINCRASKSVSTSGYSFMHWYQQKPGQPPKLLIYLASNLESGVPDRFSGSGSGTDFTLTISSLQAEDVAVYYCQHSREVPWTFGQGTKVEIKR	1.93 ng/mL	1.87 ng/mL	2.3 ng/mL	1.4 ng/mL	
humanized 1F6 antibody derivative HHLA (hVHH and hVLA) (antibody, V domains shown, Heavy chain is hVH-H + hIgG1 constant domain; also called h1F6 HHLA) VH: QVQLVQSGAEVKKPGASVKVSCKASGYTFTNYGMNWVRQAPGQGLEWMGWINTYTGEPTYADAFKGRFAFSLDTSTSTAYLQINSLRSDDTAVYYCARDYGDYGMDYWGQGTTVTVSS VL: DIVMTQSPDSLAVSLGERATINCRASKSVSTSGYSFMHWYQQKPGQPPKLLIYLASNLESGVPDRFSGSGSGTDFTLTISSLQAEDVAVYYCQHSREVPWTFGQGTKVEIKR					Kd [5]: 0.29 nM; Kd [6]: 0.28 nM; Kd [7]: 1.22 nM; Kd [8]: 0.15 nM
c1F6(293)-F8 (c1F6 conjugated to vcMMAF, eight drug units per antibody) (antibody, V domains shown, vcMMAF conjugated, loading level of eight drug units per antibody; attachment residues not stated) VH: QIQLVQSGPEVKKPGETVKISCKASGYTFTNYGMNWVKQAPGKGLKWMGWINTYTGEPTYADAFKGRFAFSLETSASTAYLQINNLKNEDTATYFCARDYGDYGMDYWGQGTSVTVSS VL: DIVLTQSPASLAVSLGQRATISCRASKSVSTSGYSFMHWYQQKPGQPPKLLIYLASNLESGVPARFSGSGSGTDFTLNIHPVEEEDAATYYCQHSREVPWTFGGGTKLEIKR	1.45 ng/mL	2.17 ng/mL	2.4 ng/mL	1.8 ng/mL	
c1F6 (chimeric derivative of the anti-CD70 murine monoclonal antibody 1F6) (antibody, V domains shown, also called chimeric 1F6) VH: QIQLVQSGPEVKKPGETVKISCKASGYTFTNYGMNWVKQAPGKGLKWMGWINTYTGEPTYADAFKGRFAFSLETSASTAYLQINNLKNEDTATYFCARDYGDYGMDYWGQGTSVTVSS VL: DIVLTQSPASLAVSLGQRATISCRASKSVSTSGYSFMHWYQQKPGQPPKLLIYLASNLESGVPARFSGSGSGTDFTLNIHPVEEEDAATYYCQHSREVPWTFGGGTKLEIKR					Kd [5]: 0.3 nM; Kd [6]: 0.56 nM; Kd [7]: 1.28 nM; Kd [8]: 0.26 nM
